According to US20110245473A1 (Chugai, published 2011):
Residue numbers refer to the chain shown, from its start. Names may count otherwise.

How the values were obtained:
[1] = molecular target: T1, soluble human FcRn (complex of FcRn and β2-microglobulin) (human, UniProt P55899 24-290; P61769 21-119); experiment: SPR (Biacore 3000), antibody captured, human FcRn as analyte, pH 6.0
T1 construct: Expressed constructs contain the signal regions (FcRn Met1-Leu290; β2-microglobulin Met1-Met119); also called hFcRn

[2] = molecular target: T2, recombinant human IL-6R sR (R&D systems) (human, UniProt P08887 20-358); experiment: SPR (Biacore T100), antibody captured on Protein A, rhIL-6sR as analyte, 25°C
T2 construct: Bought soluble receptor; also called rhIL-6sR; rhIL-s6R
T2 sequence (looked up): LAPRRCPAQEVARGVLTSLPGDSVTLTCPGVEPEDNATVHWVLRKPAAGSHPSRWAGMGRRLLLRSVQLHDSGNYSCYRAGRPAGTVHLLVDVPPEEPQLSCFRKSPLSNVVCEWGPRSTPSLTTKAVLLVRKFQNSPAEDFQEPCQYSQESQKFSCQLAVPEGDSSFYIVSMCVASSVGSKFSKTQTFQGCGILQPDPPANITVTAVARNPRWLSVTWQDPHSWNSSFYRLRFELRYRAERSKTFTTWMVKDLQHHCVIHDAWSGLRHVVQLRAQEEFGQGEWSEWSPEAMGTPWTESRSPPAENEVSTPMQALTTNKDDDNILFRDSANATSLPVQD

[3] = molecular target: T3, SR344 (soluble human IL-6R, N-terminal 1st to 344th amino acids) (human, UniProt P08887 20-344, limits assumed); experiment: cell-based or functional assay
T3 sequence (looked up): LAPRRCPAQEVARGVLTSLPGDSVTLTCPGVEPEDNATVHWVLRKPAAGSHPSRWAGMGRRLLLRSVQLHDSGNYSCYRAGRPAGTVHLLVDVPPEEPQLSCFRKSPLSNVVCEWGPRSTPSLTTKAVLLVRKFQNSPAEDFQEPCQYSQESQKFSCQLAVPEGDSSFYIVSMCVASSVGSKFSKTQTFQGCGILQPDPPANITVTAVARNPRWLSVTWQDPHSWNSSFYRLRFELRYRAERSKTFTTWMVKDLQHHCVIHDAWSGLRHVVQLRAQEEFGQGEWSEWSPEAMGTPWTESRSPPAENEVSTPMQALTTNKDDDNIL

[4] = molecular target: T3, SR344 (soluble human IL-6R, N-terminal …); experiment: SPR (Biacore T100), antibody captured on Protein A/G, SR344 as analyte, 37°C
[5] = molecular target: T3, SR344 (soluble human IL-6R, N-terminal …); experiment: SPR (Biacore T100), antibody captured on Protein A/G, 37°C; end of the range tied by the KD values of Table 3
[6] = molecular target: T2, recombinant human IL-6R sR (R&D systems); experiment: as above
[7] = molecular target: T2, recombinant human IL-6R sR (R&D systems); experiment: SPR (Biacore T100), antibody captured on Protein A, rhIL-6sR as analyte, 25°C; remark: listed apart in the source
[8] = molecular target: T3, SR344 (soluble human IL-6R, N-terminal …); experiment: SPR (Biacore T100), SR344 as analyte, 37°C; end of the range tied by the KD values of Table 16

T1 sequence (P55899 24-290 limits assumed, chain 1 of 2): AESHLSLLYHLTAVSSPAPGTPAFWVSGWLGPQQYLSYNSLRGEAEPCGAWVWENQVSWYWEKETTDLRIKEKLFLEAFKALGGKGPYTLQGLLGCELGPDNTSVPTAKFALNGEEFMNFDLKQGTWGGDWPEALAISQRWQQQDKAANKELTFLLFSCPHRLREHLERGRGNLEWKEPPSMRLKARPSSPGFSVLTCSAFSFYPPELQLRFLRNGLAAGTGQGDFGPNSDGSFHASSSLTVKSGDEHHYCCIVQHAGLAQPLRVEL
T1 sequence (P61769 21-119 limits assumed, chain 2 of 2): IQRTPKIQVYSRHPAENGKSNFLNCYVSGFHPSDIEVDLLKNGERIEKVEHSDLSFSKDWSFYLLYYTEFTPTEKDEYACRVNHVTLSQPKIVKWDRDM

B1: WT-M58 (antibody)
heavy: QVQLQESGPGLVRPSQTLSLTCTVSGYSITSDHAWSWVRQPPGRGLEWIGYISYSGITTYNPSLKSRVTMLRDTSKNQFSLRLSSVTAADTAVYYCARSLARTTAMDYWGQGSLVTVSSASTKGPSVFPLAPSSKSTSGGTAALGCLVKDYFPEPVTVSWNSGALTSGVHTFPAVLQSSGLYSLSSVVTVPSSNFGTQTYTCNVDHKPSNTKVDKTVERKSCVECPPCPAPPVAGPSVFLFPPKPKDTLMISRTPEVTCVVVDVSQEDPEVQFNWYVDGVEVHNAKTKPREEQFNSTFRVVSVLTVVHQDWLNGKEYKCKVSNKGLPAPIEKTISKTKGQPREPQVYTLPPSQEEMTKNQVSLTCLVKGFYPSDIAVEWESNGQPENNYKTTPPMLDSDGSFFLYSKLTVDKSRWQEGNVFSCSVMHEALHNHYTQKSLSLSP
light: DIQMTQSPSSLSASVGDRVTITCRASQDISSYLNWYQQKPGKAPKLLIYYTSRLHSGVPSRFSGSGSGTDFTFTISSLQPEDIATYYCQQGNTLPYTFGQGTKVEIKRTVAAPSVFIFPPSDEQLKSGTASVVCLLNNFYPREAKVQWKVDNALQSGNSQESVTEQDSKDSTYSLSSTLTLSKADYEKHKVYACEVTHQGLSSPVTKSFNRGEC
notes: L(WT) as L chain; copies: 2 + 2
Q: For B1, which “binding relative to WT-IgG1” value [1] is on record?
A: The value was ~1.4 times of WT-IgG1.

B2: WT-M73 (antibody)
heavy: B1 heavy with N432A
light: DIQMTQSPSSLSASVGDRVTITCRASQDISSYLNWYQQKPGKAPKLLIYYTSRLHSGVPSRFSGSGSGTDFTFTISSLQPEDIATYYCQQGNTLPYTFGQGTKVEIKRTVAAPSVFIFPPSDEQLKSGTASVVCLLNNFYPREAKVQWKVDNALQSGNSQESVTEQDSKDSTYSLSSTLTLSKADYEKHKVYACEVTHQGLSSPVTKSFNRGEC
notes: WT-M58 with alanine at position 434 (EU numbering); L(WT) as L chain; copies: 2 + 2
Q: For B2, which “binding relative to WT-IgG1” value [1] is on record?
A: The value was ~3.8 times of WT-IgG1.

B3: RD-6 (antibody, V domains shown)
VH: QVQLQESGPGLVRPSQTLSLTCTVSGYSITSDHAWSWVRQPPGRGLEWIGYISYSGITTYNPSLKSRVTMLRDTSKNQFSLRLSSVTAADTAVYYCARLLARATAMDYWGQGSLVTVSS
VL: DIQMTQSPSSLSASVGDRVTITCRASQDISSYLNWYQQKPGKAPKLLIYYTSRLHSGVPSRFSGSGSGTDFTFTISSLQPEDIATYYCQQGNTLPYTFGQGTKVEIK
Q: Which results are given for B3?
A: fold higher affinity than WT [2]: ~50 times; BaF/gp130-neutralizing activity, 100% inhibitory concentration, against WT [3]: ~50 times higher than WT

B4: H53/L28 (antibody, IgG1, V domains shown)
VH: QVQLQESGPGLVKPSETLSLTCAVSGYSISDDHAWSWVRQPPGEGLEWIGYISYSGITNYNPSLKGRVTISRDTSKNQFSLKLSSVTAADTAAYYCARSLARTTAMDYWGEGTLVTVSS
VL: B3 VL with R18S, R24Q, K45E, T51G, R53E, Q79E, P80A, I83A, T93S, K107E
notes: made from the humanized PM-1 IgG1 vectors; also called altered antibody H53/L28
Q: For B4, which “fold reduction of KD compared to WT” value [4] is on record?
A: Its value is roughly 6 fold.

B5: RDC-23 (antibody, V domains shown)
VH: B3 VH with L99V, A103I
VL: B3 VL with Q89G, T93R
notes: IgG; also called H chain RDC-5H, L chain RDC-11L
Q: Which results are given for B5?
A: fold improved affinity compared to WT [5]: 40 to 60 times; fold improved affinity compared to WT [6]: 40 to 60 times; BaF/gp130-neutralizing activity, 100% inhibitory concentration, against WT [3]: ~100 times higher than WT

B6: RDC-8 (antibody, V domains shown)
VH: B3 VH with A103I
VL: B3 VL
notes: IgG; also called H chain RDC-8H, L chain L(WT)
Q: Which koff [7] does the source give for B6 here?
A: Its koff is 3.8e-05 s⁻¹.

B7: PF1 antibody (antibody, IgG1, V domains shown)
VH: B4 VH with S99V, T103I
VL: DIQMTQSPSSLSASVGDSVTITCQASQDISSYLNWYQQKPGKAPELLIYYGSELHSGVPSRFSGSGSGTDFTFTISSLEAEDAATYYCGQGNRLPYTFGQGTKVEIE
notes: also called PF1-IgG1; PF1_H/PF1_L
Q: Which “fold improved affinity compared to WT” value [4] does the source give for B7 here?
A: Its value is roughly 150 times.

B8: F2H/L39-IgG1 (antibody, V domains shown)
VH: QVQLQESGPGLVKPSETLSLTCAVSGYSISDDHAWSWVRQPPGEGLEWIGYISYSGITNYNPSLQDRVTISRDNSKNTLYLQMNSLRAEDTAVYYCARLLARATAMDYWGQGILVTVSS
VL: DIQMTQSPSSLSASVGDSVTITCQASEDISSYLNWYQQKPGKAPELLIYYGSELESGVPSRFSGSGSGTDFTFTISSLEAEDAATYYCGQGNRLPYTFGQGTKVEIER
Q: What does the source list for B8?
A: ka relative to PF1-IgG1 [4]: ~0.5 fold of PF1-IgG1; BaF/gp130-neutralizing activity, 100% inhibitory concentration, against WT [3]: ≥ 100 times higher than WT

B9: Fv3-M73 (antibody, V domains shown)
VH: B8 VH with Y27H, D31H, Y51F, S63T, D66G, L99S, A103T, Q111E, I113T
VL: B8 VL with E27R, Y32H, E53H, E55L
notes: also called H chain VH4-M73, L chain VL1-kappa
Q: For B9, which “fold higher affinity than TOCILIZUMAB” value [8] is on record?
A: The value was 3 times.

B10: Fv4-M73 (antibody, V domains shown)
VH: B8 VH with Y27H, D31H, Y51F, D66G, L99S, A103T, Q111E, I113T
VL: B8 VL with E27T, Y32H, E53H, E55L
notes: also called H chain VH3-M73, L chain VL3-kappa
Q: B10 was tested. Which “fold higher affinity than TOCILIZUMAB” value [8] did it give?
A: The value was 2 times.
